This test concerns the target human CD20 (human) (UniProt P11836).

Here are results for 1 substance from US9579382B2.

In the case of rituximab (antibody), the % of cytotoxicity (dead CFSE+ 7-AAD+ Raji target cells), ADCC with PBMC effector cells at 25:1 for 6 hours amounted to 25%.
